In PMC9846428, “EEPD1 promotes repair of oxidatively-stressed replication forks”:

T1: EEPD1 (Homo sapiens) (UniProt Q7L9B9)
T1 sequence: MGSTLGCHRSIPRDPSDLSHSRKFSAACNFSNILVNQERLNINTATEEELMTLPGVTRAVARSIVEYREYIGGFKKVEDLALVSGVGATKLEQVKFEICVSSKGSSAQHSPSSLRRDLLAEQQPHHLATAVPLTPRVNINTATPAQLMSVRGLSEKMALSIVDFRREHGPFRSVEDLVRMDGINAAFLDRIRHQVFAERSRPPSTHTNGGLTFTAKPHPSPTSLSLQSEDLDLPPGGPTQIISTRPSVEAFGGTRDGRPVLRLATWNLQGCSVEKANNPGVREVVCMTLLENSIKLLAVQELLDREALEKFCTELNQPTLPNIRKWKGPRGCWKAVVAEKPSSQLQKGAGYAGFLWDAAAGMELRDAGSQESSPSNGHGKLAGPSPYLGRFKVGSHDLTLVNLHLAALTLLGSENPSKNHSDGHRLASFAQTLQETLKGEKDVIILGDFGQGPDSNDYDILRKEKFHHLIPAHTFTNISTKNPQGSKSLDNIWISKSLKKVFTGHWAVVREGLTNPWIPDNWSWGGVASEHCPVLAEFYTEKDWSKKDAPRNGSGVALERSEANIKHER

T2: EEPD1 (Homo sapiens, UniProt Q7L9B9 1-569)
T2 sequence: T1 sequence

B1: fork DNA without abasic site (Oligos D, F, G, H) (structured_DNA)
DNA 1: CATGCAGCTGATGCGTACAACACACTGTG
DNA 2: TTTTCCCCCCCCCCCGCATCAGCTGCATG
DNA 3: CACAGTGTGTTGTA
DNA 4: GGGGGGGGGGAAAA

Tests used:
[1] = biological target: APE1 (Homo sapiens) (UniProt P27695); assay: fluorescence polarization; settings: 5 nM DNA, no Mg2+ listed, THF at nt 15 of strand 1 (N), EMSA: 20 mM HEPES pH 7.9, 1 mM DTT, 30 mM NaCl, 0.03% NP-40, 10% glycerol, 1 ug poly(dI-dC), 20 min room temperature, FP: 10 mM HEPES pH 7.5, 50 mM KCl
[2] = biological target: T1, EEPD1 (Homo sapiens); assay: fluorescence polarization; settings: 5 nM DNA, no Mg2+ listed, THF at nt 15 of strand 1 (N), EMSA: 20 mM HEPES pH 7.9, 1 mM DTT, 30 mM NaCl, 0.03% NP-40, 10% glycerol, 1 ug poly(dI-dC), 20 min room temperature, FP: 10 mM HEPES pH 7.5, 50 mM KCl
[3] = biological target: T2, EEPD1; assay: EMSA; 1 ug poly(dI-dC); less than THF fork; EMSA: 20 mM HEPES pH 7.9, 1 mM DTT, 30 mM NaCl, 0.03% NP-40, 10% glycerol, 1 ug poly(dI-dC), 20 min room temperature; FP: 10 mM HEPES pH 7.5, 50 mM KCl, 5 nM DNA, 0-1000 nM protein; settings: protein: recombinant; tags: FLAG; label: 32P 5'-end; fork 1:2 1:3 2:4

APE1 (Homo sapiens), sequence (P27695 whole entry): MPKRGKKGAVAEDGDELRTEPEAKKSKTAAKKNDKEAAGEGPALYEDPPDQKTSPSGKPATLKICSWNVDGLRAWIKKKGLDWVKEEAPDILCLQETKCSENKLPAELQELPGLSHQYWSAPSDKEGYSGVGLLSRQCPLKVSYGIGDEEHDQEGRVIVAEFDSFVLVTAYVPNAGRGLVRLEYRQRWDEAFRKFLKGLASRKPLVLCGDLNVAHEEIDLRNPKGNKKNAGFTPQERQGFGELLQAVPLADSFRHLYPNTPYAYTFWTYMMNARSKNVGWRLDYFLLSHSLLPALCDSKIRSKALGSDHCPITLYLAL

Row | Molecule | Kd [1] [nM] | Kd [2] [nM] | binding result [3]
1 | CATGCAGCTGATGCNTACAACACACTGTG / TTTTCCCCCCCCCCCGCATCAGCTGCATG / CACAGTGTGTTGTA / GGGGGGGGGGAAAA | 21 | 81 | 
2 | B1 |  |  | binds
